Biological target: temperature sensitive C1 repressor polypeptide from thermoinducible bacteriophage P1Cm carrying the c1.100 mutation (bacteriophage P1)
Experiment: cell-based or functional assay

## Coi polypeptide (C1 inactivator polypeptide) from bacteriophage P1
  Basal activity (31° C.), Miller units; β-Gal from Op72lacZcoi reporter in K. pneumoniae: 36.4 Miller units
  Fold-induction; β-Gal from Op72lacZcoi reporter in K. pneumoniae: 19 fold
  Induced activity (42° C.), Miller units; β-Gal from Op72lacZcoi reporter in K. pneumoniae: 698 Miller units

Source: patent US20050118719A1
